Measurements as given in US20240417439A1, “RECOMBINANT POLYPEPTIDE FOR DISRUPTING INTERACTION OF EAG2 AND KVß2 AND THERAPEUTIC APPLICATIONS THEREOF IN CANCER TREATMENT” (The Hospital for Sick Children, priority 2021, published 2024).
Non-standard residues stand in square brackets, D forms with d. No end group written: not given here.

How the values were obtained:
GBM532 cells = test: cell viability of GBM532 cells following peptide treatment; assay type: cell-based, human; settings: increasing peptide concentrations
From the text: GBM532 cells were exposed to increasing concentrations of various peptide treatments. […] The peptide K59-78^TATwas used as a negative control.

[1] = peptide treatment of non-tumor-bearing mice; assay type: in vivo
Description: To further determine the impact of peptide treatment on mouse physiology, non-tumor-bearing mice were treated with K59-78^TAT or K90-114^TAT.

[2] = molecular target: T1, human voltage-gated potassium channel subfamily H member 5 (KCNH5, EAG2) (human, UniProt Q8NCM2 1-988); test: co-IP in HEK293T cells (FIG. 26)
T1 construct: Full length EAG2 expressed in HEK293T cells and tested by co-IP from lysates; This id also stands for endogenous human EAG2 in lysates of GBM cells and of human fetal neural progenitor cells; also called full length EAG2
T1 sequence: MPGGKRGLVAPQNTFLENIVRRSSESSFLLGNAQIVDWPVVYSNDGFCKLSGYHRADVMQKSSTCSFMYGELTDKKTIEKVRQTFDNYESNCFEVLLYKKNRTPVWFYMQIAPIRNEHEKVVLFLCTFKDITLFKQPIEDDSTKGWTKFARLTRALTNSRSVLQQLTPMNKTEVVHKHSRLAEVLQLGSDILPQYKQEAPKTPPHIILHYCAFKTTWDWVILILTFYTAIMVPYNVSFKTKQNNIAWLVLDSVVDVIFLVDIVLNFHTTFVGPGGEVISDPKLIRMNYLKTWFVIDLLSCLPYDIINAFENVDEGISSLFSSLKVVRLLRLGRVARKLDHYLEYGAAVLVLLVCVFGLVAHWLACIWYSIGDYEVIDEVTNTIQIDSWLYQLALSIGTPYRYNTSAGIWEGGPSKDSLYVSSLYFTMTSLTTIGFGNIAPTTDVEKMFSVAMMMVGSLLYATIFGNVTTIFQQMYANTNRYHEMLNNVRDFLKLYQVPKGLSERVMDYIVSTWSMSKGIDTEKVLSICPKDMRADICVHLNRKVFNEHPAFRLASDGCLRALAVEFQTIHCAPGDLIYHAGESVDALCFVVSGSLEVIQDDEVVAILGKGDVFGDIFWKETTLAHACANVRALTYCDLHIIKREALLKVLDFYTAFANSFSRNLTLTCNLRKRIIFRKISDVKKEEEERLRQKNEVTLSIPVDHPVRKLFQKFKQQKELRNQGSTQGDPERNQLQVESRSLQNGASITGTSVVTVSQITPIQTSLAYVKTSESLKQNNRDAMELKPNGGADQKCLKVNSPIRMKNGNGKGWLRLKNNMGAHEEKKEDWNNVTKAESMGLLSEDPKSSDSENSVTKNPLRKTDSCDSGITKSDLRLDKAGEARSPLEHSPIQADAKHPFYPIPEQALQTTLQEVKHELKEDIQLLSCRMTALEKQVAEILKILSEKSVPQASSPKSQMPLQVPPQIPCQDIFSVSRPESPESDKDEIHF

[3] = molecular target: T1, human voltage-gated potassium channel …; test: co-IP in HEK293T cells
[4] = molecular target: T2, EAG2, endogenous, mouse whole brain (mouse, UniProt Q920E3 1-988); test: co-IP from lysates of mouse whole brains
T2 sequence (looked up): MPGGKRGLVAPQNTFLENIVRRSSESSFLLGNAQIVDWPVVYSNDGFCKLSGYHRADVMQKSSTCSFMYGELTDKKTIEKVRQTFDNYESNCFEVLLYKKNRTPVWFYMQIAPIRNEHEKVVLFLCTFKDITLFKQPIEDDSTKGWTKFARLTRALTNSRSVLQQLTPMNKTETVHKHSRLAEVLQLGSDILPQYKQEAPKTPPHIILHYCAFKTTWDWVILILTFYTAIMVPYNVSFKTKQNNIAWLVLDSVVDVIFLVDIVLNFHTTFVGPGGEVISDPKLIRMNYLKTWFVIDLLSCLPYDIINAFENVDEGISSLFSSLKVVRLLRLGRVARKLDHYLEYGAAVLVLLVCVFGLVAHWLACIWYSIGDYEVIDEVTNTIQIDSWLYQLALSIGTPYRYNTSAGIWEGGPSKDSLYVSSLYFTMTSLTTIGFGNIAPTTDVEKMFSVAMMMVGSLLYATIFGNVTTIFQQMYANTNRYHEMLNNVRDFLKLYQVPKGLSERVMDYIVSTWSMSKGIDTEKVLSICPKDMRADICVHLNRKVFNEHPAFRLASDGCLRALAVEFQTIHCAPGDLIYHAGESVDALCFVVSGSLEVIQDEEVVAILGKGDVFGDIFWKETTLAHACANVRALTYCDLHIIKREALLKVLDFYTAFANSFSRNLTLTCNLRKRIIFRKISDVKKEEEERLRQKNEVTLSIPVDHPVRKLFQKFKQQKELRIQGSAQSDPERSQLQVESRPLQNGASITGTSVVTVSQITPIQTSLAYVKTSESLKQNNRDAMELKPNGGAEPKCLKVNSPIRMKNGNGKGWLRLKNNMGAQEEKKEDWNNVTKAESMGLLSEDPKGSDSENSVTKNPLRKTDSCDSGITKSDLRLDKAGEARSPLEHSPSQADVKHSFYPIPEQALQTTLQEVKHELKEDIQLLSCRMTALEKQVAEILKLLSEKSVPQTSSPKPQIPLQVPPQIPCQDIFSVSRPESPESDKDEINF

With “Retro-inverso-DIP: D-amino acids in reverse order: VLSSRRWGKKKIINGLVVEAKGAAYSGSGSGQPRRRQRRKKRG ([dV][dL][dS][dS][dR][dR][dW]G[dK][dK][dK][dI][dI][dN]G[dL][dV][dV][dE][dA][dK]G[dA][dA][dY][dS]G[dS]G[dS]G[dQ][dP][dR][dR][dR][dQ][dR][dR][dK][dK][dR]G)” the cell-killing activity (GBM532 cells) was “Good cell-killing activity”.

In the case of “GRKKRRQRRRPQGSGSGSYAAGKAEVVLGNIIKKKGWRRSSLV [K90-114^TAT]”, the “pathological features of internal organs (heart, kidney, liver, lung)” value [1] is reported as “did not reveal pathological features”, the body weight ([1]; K59-78^TAT versus K90-114^TAT) is reported as “comparable body weight” and the survival ([1]; K59-78^TAT versus K90-114^TAT) is reported as “comparable”.

B1: Kvß2 truncation mutant f4 (79-158 aa) (other)
chain: NGINLFDTAEVYAAGKAEVVLGNIIKKKGWRRSSLVITTKIFWGGKAETERGLSRKHIIEGLKASLERLQLEYVDVVFAN
notes: Expressed in HEK293T cells
B1: binds [2].

B2: Kvβ2 isoform 3 (other, human, UniProt Q13303-3 1-415, looked up)
chain: MLSMTYSESLRSVSSRCHSEWALHPVRQTDTLELQRLREVRAAAQARNMESFLRMHGLSLDGCTAQRTGMKYRNLGKSGLRVSCLGLGTWVTFGGQITDEMAEQLMTLAYDNGINLFDTAEVYAAGKAEVVLGNIIKKKGWRRSSLVITTKIFWGGKAETERGLSRKHIIEGLKASLERLQLEYVDVVFANRPDPNTPMEGDPFSSSKSRTFIIEETVRAMTHVINQGMAMYWGTSRWSSMEIMEAYSVARQFNLTPPICEQAEYHMFQREKVEVQLPELFHKIGVGAMTWSPLACGIVSGKYDSGIPPYSRASLKGYQWLKDKILSEEGRRQQAKLKELQAIAERLGCTLPQLAIAWCLRNEGVSSVLLGASNADQLMENIGAIQVLPKLSSSIIHEIDSILGNKPYSKKDYRS
notes: Only the isoform number is printed; Whether it matches the UniProt isoform numbering is not confirmed
B2: no binding [3].

B3: Kvß2, endogenous, mouse whole brain (other, UniProt P62482 1-367, looked up)
chain: MYPESTTGSPARLSLRQTGSPGMIYSTRYGSPKRQLQFYRNLGKSGLRVSCLGLGTWVTFGGQITDEMAEHLMTLAYDNGINLFDTAEVYAAGKAEVVLGNIIKKKGWRRSSLVITTKIFWGGKAETERGLSRKHIIEGLKASLERLQLEYVDVVFANRPDPNTPMEETVRAMTHVINQGMAMYWGTSRWSSMEIMEAYSVARQFNLIPPICEQAEYHMFQREKVEVQLPELFHKIGVGAMTWSPLACGIVSGKYDSGIPPYSRASLKGYQWLKDKILSEEGRRQQAKLKELQAIAERLGCTLPQLAIAWCLRNEGVSSVLLGASNAEQLMENIGAIQVLPKLSSSIVHEIDSILGNKPYSKKDYRS
B3: no binding [4].

B4: Kvß2 truncation mutant f2 (79-316 aa) (other)
chain: NGINLFDTAEVYAAGKAEVVLGNIIKKKGWRRSSLVITTKIFWGGKAETERGLSRKHIIEGLKASLERLQLEYVDVVFANRPDPNTPMEETVRAMTHVINQGMAMYWGTSRWSSMEIMEAYSVARQFNLTPPICEQAEYHMFQREKVEVQLPELFHKIGVGAMTWSPLACGIVSGKYDSGIPPYSRASLKGYQWLKDKILSEEGRRQQAKLKELQAIAERLGCTLPQLAIAWCLRNEG
notes: Expressed in HEK293T cells
B4: binds [2].

B5: Kvβ2 isoform 2 (other, human, UniProt Q13303-2 1-353, looked up)
chain: MYPESTTGSPARLSLRQTGSPGMIYRNLGKSGLRVSCLGLGTWVTFGGQITDEMAEQLMTLAYDNGINLFDTAEVYAAGKAEVVLGNIIKKKGWRRSSLVITTKIFWGGKAETERGLSRKHIIEGLKASLERLQLEYVDVVFANRPDPNTPMEETVRAMTHVINQGMAMYWGTSRWSSMEIMEAYSVARQFNLTPPICEQAEYHMFQREKVEVQLPELFHKIGVGAMTWSPLACGIVSGKYDSGIPPYSRASLKGYQWLKDKILSEEGRRQQAKLKELQAIAERLGCTLPQLAIAWCLRNEGVSSVLLGASNADQLMENIGAIQVLPKLSSSIIHEIDSILGNKPYSKKDYRS
notes: as for B2
B5: no binding [3].

B6: Kvβ2 isoform 5 (other, human, UniProt Q13303-5 1-395, looked up)
chain: MYPESTTGSPARLSLRQTGSPGMIYSTRYGSPKRQLQFYRNLGKSGLRVSCLGLGTWVTFGGQITDEMAEQLMTLAYDNGINLFDTAEVYAAGKAEVVLGNIIKKKGWRRSSLVITTKIFWGGKAETERGLSRKHIIEGLKASLERLQLEYVDVVFANRPDPNTPMEETVRAMTHVINQGMAMYWGTSRWSSMEIMEAYSVARQFNLTPPICEQAEYHMFQREKVEVQLPELFHKIGVGAMTWSPLACGIVSGKYDSGIPPYSRASLKGYQWLKDKILSEEGRRQQAKLKELQAIAERLGCTLPQLAIAWCLRNEGVSSVLLGASNADQLMENIGAIQVRVRGPAGQRAHPSPSPVQCILPGSSCVPGSVLGTQDAPVNHQSCAPGELAFQQEQT
notes: as for B2
B6: no binding [3].
